Source: patent US20170281720A1 (published 2017)
Several values for one entry are separate records, joined by “and”; a condition that tells them apart may be missing. Equal entries are not always repeated. Bridges are numbered along the chain shown (N, C = ends). [ ]: non-standard residue; d: D form. The star is where a group is joined. 5‑TAMRA = CN(C)c1ccc2c(-c3ccc(C(=O)*)cc3C(=O)[O-])c3ccc(N(C)C)cc3[o+]c2c1; pY = N[C@@H](Cc1ccc(OP(=O)(O)O)cc1)C(=O)O; NMeW = CN[C@@H](Cc1c[nH]c2ccccc12)C(=O)O; NMeY = CN[C@@H](Cc1ccc(O)cc1)C(=O)O; Palmitoyl = CCCCCCCCCCCCCCCC(=O)*; R8 = C=CCCCCCC[C@@](C)(N)C(=O)O; Cba = N[C@@H](CC1CCC1)C(=O)O; hLeu = CC(C)CC[C@H](N)C(=O)O; S5 = C=CCCC[C@](C)(N)C(=O)O; Decac = not defined here; Napac = not defined here; Nle = CCCC[C@H](N)C(=O)O; F4g = not defined here; G1a = not defined here; βAla = NCCC(=O)O

Assays:
[1] = target: MDM2 (In-house, 41 kD) (UniProt Q00987); assay: competitive fluorescence polarization on MDM2 against FAM-labeled linear peptide; grade, scale in paragraph 462
[2] = target: T1, MDMX (In-house, 40 kD) (UniProt O15151); assay: competitive fluorescence polarization on MDMX against FAM-labeled linear peptide; grade, scale in paragraph 462
T1 sequence (looked up): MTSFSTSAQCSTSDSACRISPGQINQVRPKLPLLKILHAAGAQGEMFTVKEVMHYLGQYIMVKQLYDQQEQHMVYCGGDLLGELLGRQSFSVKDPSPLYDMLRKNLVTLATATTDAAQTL

[3] = target: T2, MDMX (In-house, 40 kD) (UniProt O15151 1-120, limits assumed); assay: FP competition on MDMX vs FAM-labeled linear peptide; graded Ki, + = >1000 nM
T2 construct: Construct not described beyond 'In-house, 40 kD'; also called MDM4
T2 sequence (looked up): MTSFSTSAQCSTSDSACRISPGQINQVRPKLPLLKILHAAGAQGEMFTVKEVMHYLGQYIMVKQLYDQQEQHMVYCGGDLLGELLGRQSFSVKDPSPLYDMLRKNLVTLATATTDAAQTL

[4] = target: T2, MDMX (In-house, 40 kD); assay: FP competition on MDMX vs FAM-labeled linear peptide; graded IC50, + = >1000 nM
[5] = target: T3, MDM2 (In-house, 41 kD) (UniProt Q00987 1-125, limits assumed); assay: competitive fluorescence polarization on MDM2 against FAM-labeled linear peptide; grade, scale in paragraph 462
T3 construct: Only 'In-house, 41 kD' is said of the protein used in the fluorescence polarization assays; also called HDM2

[6] = target: T4, MDMX (In-house, 40 kD) (UniProt O15151 1-120, limits assumed); assay: competitive FP vs FAM labeled linear peptide; column IC50 (MDMX); + = >1000 nM by the table's scale
T4 construct: Only 'MDMX (In-house, 40 kD)' is said of the protein in the FP assays; also called MDM4
T4 sequence (looked up): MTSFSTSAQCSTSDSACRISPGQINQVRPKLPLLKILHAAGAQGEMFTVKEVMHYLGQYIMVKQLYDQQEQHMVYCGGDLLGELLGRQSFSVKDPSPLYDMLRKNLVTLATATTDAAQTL

[7] = target: T4, MDMX (In-house, 40 kD); assay: competitive FP vs FAM labeled linear peptide; column Ki (MDMX); + = >1000 nM by the table's scale
[8] = target: T5, MDMX (In-house, 40 kD) (UniProt O15151 1-120, limits assumed); assay: IC50 (MDMX) grade; competitive FP vs FAM-labeled linear peptide; + = >1000 nM
T5 construct: The construct used is unknown; also called MDM4
T5 sequence (looked up): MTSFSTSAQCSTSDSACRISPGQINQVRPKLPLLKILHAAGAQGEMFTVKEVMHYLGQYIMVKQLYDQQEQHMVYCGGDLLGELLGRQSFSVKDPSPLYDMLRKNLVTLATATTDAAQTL

[9] = target: T5, MDMX (In-house, 40 kD); assay: Ki (MDMX) grade; competitive FP vs FAM-labeled linear peptide; + = >1000 nM
[10] = target: T6, MDMX (In-house, 40 kD) (UniProt O15151 1-120, limits assumed); assay: competitive fluorescence polarization on MDMX against FAM-labeled linear peptide; grade, scale in paragraph 462
T6 construct: Only 'In-house, 40 kD' is said of the protein used in the fluorescence polarization assays; also called MDM4
T6 sequence (looked up): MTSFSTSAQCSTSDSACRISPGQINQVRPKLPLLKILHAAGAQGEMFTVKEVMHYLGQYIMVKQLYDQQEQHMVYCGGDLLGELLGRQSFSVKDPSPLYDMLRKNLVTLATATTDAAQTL

Chain of MDM2 (In-house, 41 kD) (UniProt Q00987) (Q00987 1-125 limits assumed): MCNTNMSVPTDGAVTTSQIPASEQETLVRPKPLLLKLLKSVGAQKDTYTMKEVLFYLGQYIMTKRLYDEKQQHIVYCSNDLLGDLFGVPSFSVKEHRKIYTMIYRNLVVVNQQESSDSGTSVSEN
T3 sequence (Q00987 1-125 limits assumed): as above

## SP754, Ac-tawya$r5f4CF3ek$r51r-NH2 (peptide)
[1]
  IC50: > 100 nM and < 1000 nM
[2]
  IC50: > 1000 nM

## SP758, Ac-tawya$s8f4CF3e1d1r$r5a-NH2 (peptide)
[1]
  IC50: > 10 nM and < 100 nM
[2]
  IC50: > 1000 nM

## SP757, Ac-tawy$s8nf4CF3ek11$r5a-NH2 (peptide)
[1]
  IC50: < 10 nM
[2]
  IC50: > 1000 nM

## SP755, Ac-tawyanf4CF3e$r511r$r5a-NH2 (peptide)
[1]
  IC50: < 10 nM
[2]
  IC50: > 1000 nM

## SP752, Ac-t$r5wya$r5f4CF3e1d1r-NH2 (peptide)
[1]
  IC50: > 100 nM and < 1000 nM
[2]
  IC50: > 1000 nM

## SP753, Ac-tawy$r5nf4CF3e$r511r-NH2 (peptide)
[1]
  IC50: > 10 nM and < 100 nM
[2]
  IC50: > 1000 nM

## SP756, Ac-t$s8wyanf4CF3e$r511r-NH2 (peptide)
[1]
  IC50: > 10 nM and < 100 nM
[2]
  IC50: > 1000 nM

## Palmitoyl-ETF[R8]EYWAQ[Cba][S5]SAA-NH2 (staple 4-11) [SP250, Pam-ETF$r8EYWAQCba$SAA-NH2]
[3]
  Ki: > 1000 nM
[4]
  IC50: > 1000 nM

B1: SP686, 5-TAMRA-BaLTF$r8EYWAQCba$SAA-NH2 (peptide)
peptide: {5‑TAMRA}-[βAla]LTF[R8]EYWAQ[Cba][S5]SAA-NH2
modifications: staple 5-12
SMILES: CC(C)C[C@H](NC(=O)CCNC(=O)c1ccc(-c2c3ccc(N(C)C)cc3[o+]c3cc(N(C)C)ccc23)c(C(=O)[O-])c1)C(=O)N[C@H](C(=O)N[C@@H](Cc1ccccc1)C(=O)N[C@]1(C)CCCCCCC=CCCC[C@@](C)(C(=O)N[C@@H](CO)C(=O)N[C@@H](C)C(=O)N[C@@H](C)C(N)=O)NC(=O)[C@H](CC2CCC2)NC(=O)[C@H](CCC(N)=O)NC(=O)[C@H](C)NC(=O)[C@H](Cc2c[nH]c3ccccc23)NC(=O)[C@H](Cc2ccc(O)cc2)NC(=O)[C@H](CCC(=O)O)NC1=O)[C@@H](C)O
notes: stapled peptidomimetic macrocycle with fluorescent label
[5]
  Ki: ≤ 10 nM

B2: SP386 (peptide)
peptide: Ac-LTF[R8]AY[NMeW]AQL[S5]AA[Nle]A-NH2
modifications: staple 4-11; not fully specified
notes: Stapled peptidomimetic macrocycle, single isomer iso2; also called Ac-LTF$r8AYNmWAQL$AANleA-NH2
[6]
  IC50: > 1000 nM
[7]
  Ki: > 1000 nM

## Ac-LTF[R8]EYWAQ[Cba][S5]S-NH2 (staple 4-11, stapled peptidomimetic macrocycle) [SP595, Ac-LTF$r8EYWAQCba$S-NH2]
[5]
  Ki: > 1000 nM

B3: SP282 (peptide)
peptide: Decac-LTF[R8]EYWAQ[hLeu][S5]SAA-NH2
modifications: staple 4-11; reading uncertain
notes: Peptidomimetic macrocycle (stapled p53-derived peptide)
[8]
  IC50: > 1000 nM
[9]
  Ki: > 1000 nM

B4: SP384 (peptide)
peptide: Ac-LTF[R8]A[NMeY]WAQL[S5]AA[Nle]A-NH2
modifications: staple 4-11; not fully specified
notes: Stapled peptidomimetic macrocycle, single isomer iso2; also called Ac-LTF$r8ANmYWAQL$AANleA-NH2
[6]
  IC50: > 1000 nM
[7]
  Ki: > 1000 nM

## Ac-LTF[R8]E[pY]WAQL[S5]AAAAA[dA]-NH2 (staple 4-11) [SP615, Ac-LTF$r8EpYWAQL$AAAAAa-NH2]
[1]
  Ki: < 10 nM
[2]
  Ki: < 10 nM

## Ac-LTA[R8]EYWAQ[Cba][S5]SAA-NH2 (staple 4-11) [SP252, Ac-LTA$r8EYWAQCba$SAA-NH2]
[3]
  Ki: > 1000 nM
[4]
  IC50: > 1000 nM

B5: SP612, Ac-LTF$r8EYWACitL$AAAAAa-NH2 (peptide)
peptide: LTFAEYWAXLAAAAAAA
modifications: not fully specified; N-terminal acetyl; $r8 (alpha-Me R8-octenyl-alanine) at 4 crosslinked to $ (alpha-Me S5-pentenyl-alanine) at 11; Cit (citrulline) at 9; D-alanine at 17; C-terminal amide
notes: stapled peptidomimetic macrocycle
[5]
  Ki: ≤ 10 nM

B6: SP609, Ac-LTF$r8EYWAAibL$AAAAAa-NH2 (peptide)
peptide: LTFAEYWAXLAAAAAAA
modifications: not fully specified; N-terminal acetyl; $r8 (alpha-Me R8-octenyl-alanine) at 4 crosslinked to $ (alpha-Me S5-pentenyl-alanine) at 11; Aib (2-aminoisobutyric acid) at 9; D-alanine at 17; C-terminal amide
notes: as for B5
[5]
  Ki: ≤ 10 nM

## Ac-LTF[R8][G1a]YWAQL[S5]AAAAA[dA]-NH2 (staple 4-11; not fully specified; reading uncertain, stapled peptidomimetic macrocycle) [SP602, Ac-LTF$r8G1aYWAQL$AAAAAa-NH2]
[5]
  Ki: ≤ 10 nM
[10]
  Ki: ≤ 10 nM

## Ac-LTF[R8]EYWASL[S5]AAAAA[dA]-NH2 (staple 4-11, stapled peptidomimetic macrocycle) [SP610, Ac-LTF$r8EYWASL$AAAAAa-NH2]
[5]
  Ki: ≤ 10 nM

## Ac-LTF[R8]EYWALL[S5]AAAAA[dA]-NH2 (staple 4-11, stapled peptidomimetic macrocycle) [SP608, Ac-LTF$r8EYWALL$AAAAAa-NH2]
[5]
  Ki: ≤ 10 nM

## Ac-LTF[R8]EYWANL[S5]AAAAA[dA]-NH2 (staple 4-11, stapled peptidomimetic macrocycle) [SP611, Ac-LTF$r8EYWANL$AAAAAa-NH2]
[5]
  Ki: ≤ 10 nM

## Ac-LTF[R8]EYWAHL[S5]AAAAA[dA]-NH2 (staple 4-11, stapled peptidomimetic macrocycle) [SP613, Ac-LTF$r8EYWAHL$AAAAAa-NH2]
[5]
  Ki: ≤ 10 nM

## Ac-LTF[R8]QYWAQL[S5]AAAAA[dA]-NH2 (staple 4-11, stapled peptidomimetic macrocycle) [SP600, Ac-LTF$r8QYWAQL$AAAAAa-NH2]
[5]
  Ki: ≤ 10 nM
[10]
  Ki: ≤ 10 nM

## Ac-LTF[R8][F4g]YWAQL[S5]AAAAA[dA]-NH2 (staple 4-11; not fully specified; reading uncertain, stapled peptidomimetic macrocycle) [SP603, Ac-LTF$r8F4gYWAQL$AAAAAa-NH2]
[5]
  Ki: ≤ 10 nM
[10]
  Ki: ≤ 10 nM

B7: SP281 (peptide)
peptide: Napac-LTF[R8]EYWAQ[hLeu][S5]SAA-NH2
modifications: staple 4-11; reading uncertain
notes: as for B3
[8]
  IC50: > 1000 nM

B8: SP712, Ac-LTF$r8HYWAQCba$SAA-NH2 (iso2) (peptide)
peptide: Ac-LTF[R8]HYWAQ[Cba][S5]SAA-NH2
modifications: staple 4-11; also: single isomer iso2
notes: stapled peptidomimetic macrocycle, isomer iso2
[5]
  Ki: ≤ 10 nM
[10]
  Ki: ≤ 10 nM

B9: SP713, Ac-LTF$r8SYWAQCba$SAA-NH2 (iso2) (peptide)
peptide: Ac-LTF[R8]SYWAQ[Cba][S5]SAA-NH2
modifications: staple 4-11; also: single isomer iso2
notes: as for B8
[5]
  Ki: ≤ 10 nM
[10]
  Ki: ≤ 10 nM

B10: SP433, Ac-LTF$r8EYWCou7QCba$SAA-NH2 (peptide)
peptide: LTFAEYWXQAASAA
modifications: not fully specified; N-terminal acetyl; $r8 (alpha-Me R8-octenyl-alanine) at 4 crosslinked to $ (alpha-Me S5-pentenyl-alanine) at 11; Cou7 at 8 (structure given only as a drawing); Cba (cyclobutyl alanine) at 10; C-terminal amide
notes: as for B5
[5]
  Ki: ≤ 10 nM

B11: SP323 (peptide)
peptide: Ac-LTF[R8]AYWAQ[hLeu][S5]AA[Nle]AA-NH2
modifications: staple 4-11
notes: as for B3
[8]
  IC50: > 1000 nM

B12: SP716, Ac-LTF$r8EYWAQCba$AAA-NH2 (iso2) (peptide)
peptide: Ac-LTF[R8]EYWAQ[Cba][S5]AAA-NH2
modifications: staple 4-11; not fully specified
notes: as for B8
[5]
  Ki: ≤ 10 nM
[10]
  Ki: ≤ 10 nM
